Like-named read-outs stand apart in the source and are kept apart here.
What was measured:
Assay in all cases: EMSA
G4P (HIS-G4P-3xFLAG) [1] = molecular target: T1, G4P (HIS-G4P-3xFLAG) (artificial (RHAU-derived), UniProt Q9H2U1 53-75+=GTGSGAGTGSGAGTGSGA+53-75, internal_change)
T1 sequence: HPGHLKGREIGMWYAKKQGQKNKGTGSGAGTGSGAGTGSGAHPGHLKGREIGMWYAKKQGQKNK

G4P (HIS-G4P-3xFLAG) [2] = molecular target: T1, G4P (HIS-G4P-3xFLAG); remark: listed apart in the source
G4P (HIS-G4P-3xFLAG) [3] = molecular target: T1, G4P (HIS-G4P-3xFLAG); remark: listed apart in the source

Binder: AAGGGAGGGCGGCGGGGCAGGGA (structured_DNA) [PDGFR-β]
- binding result (G4P (HIS-G4P-3xFLAG) [1]): binds

Binder: GGGGCCGGGGCCGGGGCCGGGGCC (structured_DNA) [C9orf72]
- binding result (G4P (HIS-G4P-3xFLAG) [2]): binds

B1: dsCSTB (dsDNA)
DNA 1: CCTGAAGCAGACAGCTAGTGAATTCGGGGCGGGGCGCGGGGCGGGGTACTTGCGTATAACTGTTCCATAGT
DNA 2: ACTATGGAACAGTTATACGCAAGTACCCCGCCCCGCGCCCCGCCCCGAATTCACTAGCTGTCTGCTTCAGG
- binding result (G4P (HIS-G4P-3xFLAG) [3]): binds
